PMC11787825
Where two headings read alike, the source gives them in different places.

Assays:
Assay in all cases: cryo-EM structure
[1] = target: T1, HSV-1 Pol (PolΔN42);UL42 (UL42ΔC340) (Herpes simplex virus 1 (strain …, UniProt H9E937;H9E949 43-1235;2-340, |))
[2] = target: T1, HSV-1 Pol (PolΔN42);UL42 (UL42ΔC340); remark: listed apart in the source
[3] = target: T1, HSV-1 Pol (PolΔN42);UL42 (UL42ΔC340); remark: listed apart in the source

B1: PT1 (dsDNA)
DNA 1: GATTACGAATTCGAGCTCGGTACCCGGGGATC
DNA 2: CACACACACACACACACAGATCCCCGGGTACCGAGCTCGAATTCGTAATC
modifications: primer 3'-terminal dideoxycytidine (ddC)
- binding result [1]: binds

B2: PT2 (dsDNA)
DNA 1: GATTACGAATTCGAGCTCGGTACCCGGGGATC
DNA 2: CACACACACACACACACCGATCCCCGGGTACCGAGCTCGAATTCGTAATC
modifications: primer 3'-terminal dideoxycytidine (ddC)
- binding result [2]: binds

B3: PT3 (dsDNA)
DNA 1: GATTACGAATTCGAGCTCGGTACCCGGGGATCG
DNA 2: CACACACACACACACACAGATCCCCGGGTACCGAGCTCGAATTCGTAATC
modifications: phosphorothioate bonds at primer ends (after nt 1 and before the 3'-terminal G)
- binding result [3]: binds
